Results published in the supplement of paper PMC10567573.

B1: NP_002788.1 (parent)
chain: DGWIRVSSDNVADLHEKYSGSTP
B2: USP39 (parent)
chain: FVEKNPTIVNFPITNVDLREYLSE

Variants of: B1
Test: protein stability index of a GFP-peptide fusion (GPS, HEK-293T) (PSI 1-6); higher = more stable
Details: c terminus: native

Protein stability index, by site and new letter:
S21: L 2.06 | N 1.94 | K 3.06 | E 4.56 | H 2.49 | Y 2.26 | Q 3.01 | G 3.59 | M 1.87
V11: P 2.73 | W 2.4 | E 1.92 | G 2.7 | F 2.37 | N 2.69 | L 2.21 | A 2.53 | Q 2.38 | S 2.47
S8: D 2.99 | N 2.31 | G 2.42 | W 2.23 | Q 2.54 | F 2.36 | P 3.95 | V 2.42 | E 2.23 | R 2.31
V6: F 2.77 | Y 2.48 | H 2.18 | T 3.15 | C 3 | N 2.86 | K 2.16 | S 3.41 | L 2.78 | E 3.77 | P 5.05 | R 2.13 | I 2.21
G20: Y 3.29 | A 3.8 | F 3.63 | S 3.44 | H 3.79 | Q 3.43 | C 2.82 | K 3.93 | P 3.99 | V 3.82 | I 3.86 | L 3.72
R5: A 2.31 | S 2.51 | K 2.49 | Y 2.76 | C 2.83 | G 3.15 | I 2.67 | E 2.96
Y18: K 4.17 | V 3.22 | A 3.39 | N 3.13 | G 3.6 | S 3.6 | M 2.92 | W 2.81 | T 3.66 | Q 3.46 | P 4.33 | R 3.3 | L 2.69
W3: N 5.39 | V 5.65 | P 5.26 | R 5.15 | T 5.5 | S 5.54 | H 5.35 | Q 5.42 | A 5.34 | F 4.08 | K 5.21
D13: E 2.72 | G 2.42 | W 2.71 | V 2.75 | C 2.6 | N 2.4 | A 2.66 | H 2.38 | M 2.53 | K 2.71 | L 2.58
T22: W 2.81 | F 2.12 | Y 2.63 | R 3.98 | G 2.58 | Q 2.78 | P 4.85 | D 2.98 | M 2 | L 2.28 | I 2.31 | S 3.1
I4: Y 4.36 | L 3.18 | F 4.14 | V 2.17 | S 3.47 | P 5.29 | G 4.49 | N 4.94 | T 2.81 | Q 2.94 | W 3.58 | E 3.9 | A 2.92 | K 3.67
S7: F 2.45 | R 4.19 | C 2.07 | V 2.06 | H 3.09 | T 2.24 | Q 3.86 | D 4.55 | M 2.41 | A 2.32 | P 4.54 | I 2.25
E16: Y 2.87 | M 2.53 | S 2.64 | P 3.32 | T 2.8 | F 2.46 | G 3.13 | C 2.62 | V 2.92 | I 2.58 | D 2.58 | R 2.97 | H 2.67 | L 2.76
N10: F 2.4 | T 2.37 | K 2.28 | V 2.39 | M 2.67 | W 2.42 | Y 2.36 | E 2.53 | R 2.04 | G 2.86 | I 2.28 | P 2.58 | C 2.21
P23: N 4.71 | R 3.78 | A 4.55 | F 4.29 | I 3.13 | S 5 | Y 4.27 | L 3.93 | T 4.51 | H 4.63 | V 4.02 | C 4.56 | K 5.05
H15: R 2.33 | N 2.92 | F 2.82 | I 2.68 | T 2.77 | D 2.85 | Q 2.76 | W 2.39 | V 2.4
S19: A 2.26 | C 2.9 | R 2.34 | W 2.68 | K 1.95 | T 2.47 | H 2.56 | E 2.87 | L 2 | G 3.02 | N 3.07 | I 2.49 | Q 2.41
L14: Y 2.5 | H 2.06 | F 1.96 | K 2.37 | W 2.62 | C 2.92 | N 2.98 | V 2.36 | T 2.86 | A 2.84 | I 2.35
A12: R 2.46 | I 2.59 | F 2.32 | K 2.33 | E 2.52 | Y 2.73 | T 2.43 | L 2.88 | H 2.85 | P 2.45 | V 2.44
K17: S 3.41 | P 3.69 | Y 3.34 | E 3.47 | H 3.24 | G 3.75 | L 3.06 | W 2.97
D1: K 2.09 | I 2.92 | A 2.37 | M 2.3 | F 2.3 | C 2.23 | T 2.48 | R 2.44 | P 2.7
D9: G 2.82 | N 2.29 | Y 2.24 | C 2.4 | W 2.19 | M 2.59 | A 2.35 | L 2.42 | F 2.27 | K 2.36 | H 2.59 | P 2.25 | I 2.27
G2: L 2.54 | T 2.09 | V 2.49 | M 2.36 | A 2.25 | N 2.42 | W 2.27 | R 2.97 | E 2.51 | Y 2.78 | C 2.21 | K 2.13 | Q 2.56 | F 2.47 | S 2.13

Variants of: B2
Test: as above
Details: c terminus: a fixed tail appended

Protein stability index of substitutions, site by site:
K4: A 1.74 | G 2.11 | N 2.05 | C 1.42 | P 1.61 | Q 2.61 | H 2.03 | E 2.47 | F 1.14 | R 1.9 | M 1.54 | L 2.45 | I 1.07 | D 2.85
F1: C 2.87 | G 3.26 | T 3.87 | D 4.5 | S 4.11 | W 2.49 | H 4.01 | P 3.85 | Q 3.71 | L 3.95 | M 3.36 | K 4.34 | A 3.59 | Y 1.99 | E 4.26 | N 4.08 | R 3.78 | I 3.4 | V 3.89
V2: A 2.75 | P 2.96 | Q 2.81 | K 3.26 | D 3.79 | F 2.74 | E 3.88 | T 3.2 | N 3.68 | H 2.94 | I 2.3 | L 2.43 | C 2.94 | M 3.36 | Y 2.62 | W 2.81 | R 3.84 | G 3.51 | S 3.02
E3: S 3.64 | A 1.49 | V 2.25 | I 1.85 | N 1.85 | K 1.94 | G 1.66 | Q 1.58 | P 2.41 | L 1.27 | F 2.57 | D 1.95 | C 1.52 | W 1.55 | R 1.38 | Y 2.21 | H 1.83 | T 1.15
